Experimental data as given in article PMC8454987 (PLoS Biology, 2021).

How the values were obtained:
[1] = biological target: HHV-8 gH/gL ectodomain complex (insect cell, for crystallization) (human herpesvirus 8 (HHV-8)) (UniProt F5HAK9); experiment: SEC-MALS
[2] = biological target: T1, EphA2 ectodomain (res. 27 to 534), wild type (human, UniProt P29317 27-534); experiment: BLI; conditions: both partners purified
T1 construct: also called WT EphA2 ectodomain

[3] = biological target: EphA2 LBD (res. 27 to 202), wild type (human, UniProt P29317 27-202); experiment: BLI; conditions: both partners purified
crystal structure = biological target: the molecule itself; experiment: crystal structure

HHV-8 gH/gL ectodomain complex (insect cell, for crystallization) (human herpesvirus 8 (HHV-8)), sequence (F5HAK9 whole entry, looked up, the tested form may be a part, one chain of several): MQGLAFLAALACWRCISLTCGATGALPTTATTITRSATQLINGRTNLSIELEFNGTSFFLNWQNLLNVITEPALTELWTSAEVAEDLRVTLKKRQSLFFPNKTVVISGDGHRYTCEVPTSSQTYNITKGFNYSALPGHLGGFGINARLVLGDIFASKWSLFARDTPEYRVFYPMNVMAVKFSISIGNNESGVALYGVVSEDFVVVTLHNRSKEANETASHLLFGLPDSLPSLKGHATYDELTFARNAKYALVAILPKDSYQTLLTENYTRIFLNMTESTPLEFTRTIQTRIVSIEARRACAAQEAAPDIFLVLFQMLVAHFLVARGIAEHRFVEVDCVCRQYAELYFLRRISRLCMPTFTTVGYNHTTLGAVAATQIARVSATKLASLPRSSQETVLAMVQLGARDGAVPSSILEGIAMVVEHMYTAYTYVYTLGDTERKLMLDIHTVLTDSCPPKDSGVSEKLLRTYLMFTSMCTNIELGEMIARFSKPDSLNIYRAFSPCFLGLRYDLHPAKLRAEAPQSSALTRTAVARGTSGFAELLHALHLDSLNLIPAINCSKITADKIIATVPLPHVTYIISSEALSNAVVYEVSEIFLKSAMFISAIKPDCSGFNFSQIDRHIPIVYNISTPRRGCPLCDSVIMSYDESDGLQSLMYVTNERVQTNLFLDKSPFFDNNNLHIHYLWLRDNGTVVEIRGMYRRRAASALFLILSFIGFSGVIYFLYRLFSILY
T1 sequence (P29317 27-534): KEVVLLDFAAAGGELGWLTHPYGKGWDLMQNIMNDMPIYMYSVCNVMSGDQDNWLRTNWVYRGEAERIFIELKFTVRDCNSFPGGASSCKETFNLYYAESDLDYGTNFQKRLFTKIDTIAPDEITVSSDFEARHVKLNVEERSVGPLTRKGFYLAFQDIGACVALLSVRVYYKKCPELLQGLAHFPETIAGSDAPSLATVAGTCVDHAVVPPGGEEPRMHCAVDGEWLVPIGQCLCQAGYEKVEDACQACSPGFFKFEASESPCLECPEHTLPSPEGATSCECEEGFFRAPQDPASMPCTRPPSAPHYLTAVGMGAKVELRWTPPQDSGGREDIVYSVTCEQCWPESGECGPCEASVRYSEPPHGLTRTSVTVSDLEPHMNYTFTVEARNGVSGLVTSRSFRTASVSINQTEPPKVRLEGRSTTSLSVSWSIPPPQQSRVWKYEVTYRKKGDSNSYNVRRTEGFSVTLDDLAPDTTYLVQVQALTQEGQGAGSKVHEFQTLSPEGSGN

“EphA2 ligand-binding domain (residues 23 to 202), insect cell (from UniProt P29317 23-202) (domain or fragment)” was tested, and the stoichiometry N [1] was 1.

“EphA2 ectodomain (res. 27 to 534), wild type (from UniProt P29317 27-534) (domain or fragment)” was tested, and the stoichiometry N [1] was 1.

B1: HHV-8 gH^his/gL^st wild type (mammalian cells) (complex)
chain 1: LPTTATTITRSATQLINGRTNLSIELEFNGTSFFLNWQNLLNVITEPALTELWTSAEVAEDLRVTLKKRQSLFFPNKTVVISGDGHRYTCEVPTSSQTYNITKGFNYSALPGHLGGFGINARLVLGDIFASKWSLFARDTPEYRVFYPMNVMAVKFSISIGNNESGVALYGVVSEDFVVVTLHNRSKEANETASHLLFGLPDSLPSLKGHATYDELTFARNAKYALVAILPKDSYQTLLTENYTRIFLNMTESTPLEFTRTIQTRIVSIEARRACAAQEAAPDIFLVLFQMLVAHFLVARGIAEHRFVEVDCVCRQYAELYFLRRISRLCMPTFTTVGYNHTTLGAVAATQIARVSATKLASLPRSSQETVLAMVQLGARDGAVPSSILEGIAMVVEHMYTAYTYVYTLGDTERKLMLDIHTVLTDSCPPKDSGVSEKLLRTYLMFTSMCTNIELGEMIARFSKPDSLNIYRAFSPCFLGLRYDLHPAKLRAEAPQSSALTRTAVARGTSGFAELLHALHLDSLNLIPAINCSKITADKIIATVPLPHVTYIISSEALSNAVVYEVSEIFLKSAMFISAIKPDCSGFNFSQIDRHIPIVYNISTPRRGCPLCDSVIMSYDESDGLQSLMYVTNERVQTNLFLDKSPFFDNNNLHIHYLWLRDNGTVVEIRGMYRRRAAS
chain 2: YVALPCCAIQASAASTLPLFFAVHSIHFADPNHCNGVCIAKLRSKTGDITVETCVNGFNLRSFLVAVVRRLGSWASQENLRLLWYLQRSLTAYTVGFNATTADSSIHNVNIIIISVGKAMNRTGSVSGSQTRAKSSSRRAHAGQKGK
B1 was tested, and the Kd [2] was less than 1 nM and the Kd [3] was less than 1 nM.

B2: EphA2 ligand-binding domain (residues 23 to 202), insect cell (domain or fragment, human, UniProt P29317 23-202, looked up)
chain: AAQGKEVVLLDFAAAGGELGWLTHPYGKGWDLMQNIMNDMPIYMYSVCNVMSGDQDNWLRTNWVYRGEAERIFIELKFTVRDCNSFPGGASSCKETFNLYYAESDLDYGTNFQKRLFTKIDTIAPDEITVSSDFEARHVKLNVEERSVGPLTRKGFYLAFQDIGACVALLSVRVYYKKCP
notes: also called EphA2 LBD; LBD
B2: binds (crystal structure).
